Data: EP0672680A1

Legend:
[1] = molecular target: bovine lung-derived ANP receptor (bovine); assay: competition radioligand binding: displacement of 125I-rat ANP from bovine lung membrane fraction, filter assay
[2] = molecular target: BK receptor derived from guinea pig ilea (guinea pig); assay: competition radioligand binding: inhibition of 3H-BK (200 pM) binding to guinea pig ileum membrane fraction; test compound at 10^-8 M
[3] = molecular target: BK receptor derived from guinea pig ilea (guinea pig); assay: competition radioligand binding: inhibition of 3H-BK (200 pM) binding to guinea pig ileum membrane fraction; test compound at 10^-7 M

Sequence of bovine lung-derived ANP receptor (bovine) (P10730 42-537): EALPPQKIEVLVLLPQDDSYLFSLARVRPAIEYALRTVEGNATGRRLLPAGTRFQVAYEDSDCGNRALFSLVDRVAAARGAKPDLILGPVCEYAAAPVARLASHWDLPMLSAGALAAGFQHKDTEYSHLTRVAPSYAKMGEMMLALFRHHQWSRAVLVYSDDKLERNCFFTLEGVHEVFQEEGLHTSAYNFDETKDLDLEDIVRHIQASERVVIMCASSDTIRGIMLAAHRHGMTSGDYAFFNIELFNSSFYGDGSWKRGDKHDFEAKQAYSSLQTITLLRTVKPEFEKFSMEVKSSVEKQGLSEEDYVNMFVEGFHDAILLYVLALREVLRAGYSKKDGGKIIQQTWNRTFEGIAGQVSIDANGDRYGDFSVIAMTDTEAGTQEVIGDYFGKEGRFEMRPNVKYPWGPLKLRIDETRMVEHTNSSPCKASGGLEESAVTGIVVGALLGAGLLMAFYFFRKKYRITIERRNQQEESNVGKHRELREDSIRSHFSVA
Sequence of BK receptor derived from guinea pig ilea (guinea pig) (O70526 whole entry): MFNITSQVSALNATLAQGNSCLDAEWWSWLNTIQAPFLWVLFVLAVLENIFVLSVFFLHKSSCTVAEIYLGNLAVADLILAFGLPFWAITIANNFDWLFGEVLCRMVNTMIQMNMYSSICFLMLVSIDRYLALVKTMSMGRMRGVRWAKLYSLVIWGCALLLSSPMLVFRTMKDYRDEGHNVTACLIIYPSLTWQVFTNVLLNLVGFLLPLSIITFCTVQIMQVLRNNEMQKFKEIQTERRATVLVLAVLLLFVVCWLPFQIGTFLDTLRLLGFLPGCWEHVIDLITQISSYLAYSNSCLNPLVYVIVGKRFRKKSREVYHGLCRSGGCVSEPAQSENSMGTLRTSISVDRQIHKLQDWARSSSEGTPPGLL

IC50 [1] [nM] | Percentage inhibition (%) [2] [%] | Percentage inhibition (%) [3] [%] | Substance
21 | – | – | compound (k) (H-Phe-Gly-Gly-Arg-(N-Me)Ile-Asp-Arg-Ile-NH2) (peptide)
– | 20 | 68 | compound (m) (H-D-Arg-Arg-Pro-Hyp-Gly-Phe-Ser-D-Phe-Leu-Arg-OH) (peptide)
2.5 | – | – | compound (h) (H-Ala-Phe-Gly-Gly-Arg-Ile-Asp-Arg-Ile-Gly-Ala-Ala-NH2) (peptide)
3.5 | – | – | compound (g) (H-Phe-Gly-Gly-Arg-Ile-Asp-Arg-Ile-NH2) (peptide)
